Measured values from the nanobody polyreactivity screen of Harvey et al. (2022).

Experiment: yeast display, Sf9 membrane polyspecificity reagent, FACS + sequencing; frameworks hold sequencing errors
Summary of the method: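 A synthetic nanobody library was expressed on Saccharomyces cerevisiae BJ5465 by galactose induction for 36–48 hours. The library was stained for 1 hour at 4 °C with 10% biotinylated, detergent-solubilized Sf9 membrane reagent and enriched with streptavidin microbeads before FACS. Low and high (top ~1%) gates were set on anti-HA fluorescence for expression and streptavidin fluorescence for reagent binding, and each polyreactivity label reflects the gate of origin.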

Sequence	polyreactivity (PSR sort gate)
QVQLVESGGGLVQAGGSLRLSCAASGRIFSAYAIGCYRQSPWKERELVSAISRSGGRTYYADSVKGSFTISRDNAKNTVYLQMNSLKPEDTAVYYCAAARFAIVRGDYCGQGTQVTVSS	high polyreactivity
QVQLVESGGGLVQAGGSLRLSCAASGRIFSAYAMGLYRQAPGKERELVAAITSVGSTKYADSVKGRFTISRDNAKNTVYLQMNSLIPEDTAVYYCAAEYTRSFYIYYRFGYWGQGTQVTVSS	high polyreactivity
QVQLVESGGGLVQAGGSLRLSCAASGRIFSAYAMGWYRQAPGKERELVAAISRSRGRTYYADSVKGRVTISRDNAKNTVYLQMNSLKPEDTAVYYCAAARFAIVRGDYWGQGTQVTVSS	high polyreactivity
QVQLVESGGGLVQAGGSLRLSCAASGRIFSAYAMGWYRQAPGKERELVAANSRSGGRTYYADSVKGRFTISRDNAKNTVYLQMNSLKPDDTAVYYCAVLWHGRRPLYKLRTGPEYDYWGQGTQVTVSS	high polyreactivity
QVQLVESGGGLVQAGGSLRLSCAASGRIFSDYAMGWYRQAPGKERELVATITSGDSTNYEDSVKGRFTISRDNAKNTVYLQMNSLKPVDTAVYYCIADRYADYDYWGQGTQVTVSS	low polyreactivity
QVQLVESGGGLVQAGGSLRLSCAASGRIFSFNAMGRYRQAPGKERELVAAITWRGGSTYYADSVKGRFTISRDNAKNTVYLQMNSLKPEDTAVYYCNAYPFWRDYDYWGQGTQVTVSS	high polyreactivity
QVQLVESGGGLVQAGGSLRLSCAASGRIFSFNAMGWYRQAPGKERELVATIRTDGTTNYADSVKGRFTISRDNAKNTVYLQMNSLKPEDTAVYYCAANRKRFAFGYWGQGTQVTVSS	high polyreactivity
QVQLVESGGGLVQAGGSLRLSCAASGRIFSFYTMGWYRQAPGKERELVAAISGSGGSTYYADSVKGRFTISRDNANNTFYLQMNSLKPEDTAVYYCAAGYGFRYYLYDYWGQGTQVTVSS	high polyreactivity
QVQLVESGGGLVQAGGSLRLSCAASGRIFSFYVMGWYRQAPGKERELVAAISLSGGSTYYADSVKGRFTISRDNAMNTVYLQMNSLKPEDTAVYYCNAVLYARQRDRWARYDYWGQGTQVTVSS	high polyreactivity
QVQLVESGGGLVQAGGSLRLSCAASGRIFSGYAMGWYRQAPGKERELVAAISGGGSTNYADSVKGRFTISRDNAKNTVYLQMNSLKPEDTAVYYCATQYGHYPYWLYKYDYWGQGTQVTVSS	low polyreactivity
QVQLVESGGGLVQAGGSLRLSCAASGRIFSGYAMGWYRQAPGKERELVAAITSRSGSTYYADSVKGRFTISRDNAKNTVYLQMNSLKPEDTAVYYCAAEYVRFYWYTSAYWGQGTQVTVSS	low polyreactivity
QVQLVESGGGLVQAGGSLRLSCAASGRIFSGYVMGWYRQPPGKERELVAAISRSGGSTYYADSVKGRFTISRDNAKNTVYLQMNSLKPEDTAVYYCNADWYKRHYDYWGQGTQVTVSS	high polyreactivity
QVQLVESGGGLVQAGGSLRLSCAASGRIFSHNVMGWYRQAPGKERELVAAISWSSGSTYYADSVKGRFTISRDNAKNTVYLQMNSLKPEDTAVYYCNAATRPTGDYWGQGTQVTVSS	low polyreactivity
QVQLVESGGGLVQAGGSLRLSCAASGRIFSHYAMGWYRQAPGKERELVAAINRSGGSTYYADSVKGRFTISRDNAKNTVYLQMNSLKPEDTAVYYCAADVKYGYDWGQGTQVTVSS	high polyreactivity
QVQLVESGGGLVQAGGSLRLSCAASGRIFSINAMGWYRQAPGKERELVASISSGGSTKYADSVKGRFTISRDNAKNTVYLQMNSLKPEDTAVYYCAARGRVYRYGYWGQGTQVTVSS	high polyreactivity
QVQLVESGGGLVQAGGSLRLSCAASGRIFSIYAMGSYRQAPGKERELVAAISFRGTSTYADSVKGRFTISRDNAKNTVYLQMNSLKPEDTAVYYCAVTGFDFLWPSLGGELDYWGQGTQVTVSS	low polyreactivity
QVQLVESGGGLVQAGGSLRLSCAASGRIFSIYGMGWSRQAPGKEREFVASITYSGGSTYYADSVKGRFTISRDNAKNTVYLQMNSLQPEDTAVYYCAKYVFSAYDYWGQGTLVTVSS	low polyreactivity
